Test results as given in PMC3565344, “Gamma-Aminobutyric Acid Production Using Immobilized Glutamate Decarboxylase Followed by Downstream Processing with Cation Exchange Chromatography” (International Journal of Molecular Sciences, 2013).
“And” between values parts separate entries of the source, which are not always exact repeats. Equal values may be shown once.

Target: the molecule itself
Assay: SEC; size exclusion HPLC on TSKgel G3000SW; 20 uL purified GAD injected; isocratic elution at 1 mL/min for 30 min; 0.1 M sodium sulfate in 0.1 M phosphate buffer, pH 6.8; mix of monomer, dimer and tetramer

B1: Escherichia coli glutamate decarboxylase fused to six histidine at its C-terminus (enzyme, E. coli, UniProt P69910 1-466, looked up)
chain: MDKKQVTDLRSELLDSRFGAKSISTIAESKRFPLHEMRDDVAFQIINDELYLDGNARQNLATFCQTWDDENVHKLMDLSINKNWIDKEEYPQSAAIDLRCVNMVADLWHAPAPKNGQAVGTNTIGSSEACMLGGMAMKWRWRKRMEAAGKPTDKPNLVCGPVQICWHKFARYWDVELREIPMRPGQLFMDPKRMIEACDENTIGVVPTFGVTYTGNYEFPQPLHDALDKFQADTGIDIDMHIDAASGGFLAPFVAPDIVWDFRLPRVKSISASGHKFGLAPLGCGWVIWRDEEALPQELVFNVDYLGGQIGTFAINFSRPAGQVIAQYYEFLRLGREGYTKVQNASYQVAAYLADEIAKLGPYEFICTGRPDEGIPAVCFKLKDGEDPGYTLYDLSERLRLRGWQVPAFTLGGEATDIVVMRIMCRRGFEMDFAELLLEDYKASLKYLSDHPKLQGIAQQNSFKHT
notes: glutamate decarboxylase (GAD, EC 4.1.1.15) of E. coli, gene amplified from genomic DNA (GenBank M84025); The reverse primer puts an XhoI site (CTCGAG, would encode Leu-Glu) between the last GAD codon and the six histidines; this is my reading of the primer; also called GAD; EGAD; source: E. coli BL21 (DE3), purified (HisTrap HP, buffer exchange on Sephadex G-25); not shown: His6, C-terminal, kept
- stoichiometry N: 2 and 4
